Data taken from article PMC7699706, “Responses of DNA Mismatch Repair Proteins to a Stable G-Quadruplex Embedded into a DNA Duplex Structure” (International Journal of Molecular Sciences, 2020).

Substrate: Nc1ncnc2c1ncn2[C@@H]1O[C@H](COP(=O)(O)OP(=O)(O)OP(=O)(O)O)[C@@H](O)[C@H]1O
Assay: malachite green phosphate release assay, Michaelis-Menten fit
Format: biochemical, Escherichia coli
Conditions: no DNA, 5 mM MgCl2, 120 mM KCl, 10 mM HEPES-KOH pH 7.5, 37 °C, 250 nM MutS dimer
Source text: malachite green phosphate release assay, Michaelis-Menten fit on ecMutS

B1: ecMutS (Escherichia coli K-12) (protein)
chain: MSAIENFDAHTPMMQQYLRLKAQHPEILLFYRMGDFYELFYDDAKRASQLLDISLTKRGASAGEPIPMAGIPYHAVENYLAKLVNQGESVAICEQIGDPATSKGPVERKVVRIVTPGTISDEALLQERQDNLLAAIWQDSKGFGYATLDISSGRFRLSEPADRETMAAELQRTNPAELLYAEDFAEMSLIEGRRGLRRRPLWEFEIDTARQQLNLQFGTRDLVGFGVENAPRGLCAAGCLLQYAKDTQRTTLPHIRSITMEREQDSIIMDAATRRNLEITQNLAGGAENTLASVLDCTVTPMGSRMLKRWLHMPVRDTRVLLERQQTIGALQDFTAGLQPVLRQVGDLERILARLALRTARPRDLARMRHAFQQLPELRAQLETVDSAPVQALREKMGEFAELRDLLERAIIDTPPVLVRDGGVIASGYNEELDEWRALADGATDYLERLEVRERERTGLDTLKVGFNAVHGYYIQISRGQSHLAPINYMRRQTLKNAERYIIPELKEYEDKVLTSKGKALALEKQLYEELFDLLLPHLEALQQSASALAELDVLVNLAERAYTLNYTCPTFIDKPGIRITEGRHPVVEQVLNEPFIANPLNLSPQRRMLIITGPNMGGKSTYMRQTALIALMAYIGSYVPAQKVEIGPIDRIFTRVGAADDLASGRSTFMVEMTETANILHNATEYSLVLMDEIGRGTSTYDGLSLAWACAENLANKIKALTLFATHYFELTQLPEKMEGVANVHLDALEHGDTIAFMHSVQDGAASKSYGLAVAALAGVPKEVIKRARQKLRELESISPNAAATQVDGTQMSLLSVPEETSPAVEALENLDPDSLTPRQALEWIYRLKSLV
notes: recombinant, N-terminal His6 tag, expressed in E. coli BL21(DE3), Ni-NTA and size exclusion; homodimer
B1 was tested, and the Km was 35 ± 15 µM and the kcat was 0.117 ± 0.0167 s⁻¹.
